Molecular target: the molecule itself
Experiment: protein concentration dependence of fluorimetric metal uptake kinetics

B1: Escherichia coli apo-manganese superoxide dismutase (wt apo-MnSOD) (enzyme, UniProt P00448 1-206, looked up)
chain: MSYTLPSLPYAYDALEPHFDKQTMEIHHTKHHQTYVNNANAALESLPEFANLPVEELITKLDQLPADKKTVLRNNAGGHANHSLFWKGLKKGTTLQGDLKAAIERDFGSVDNFKAEFEKAAASRFGSGWAWLVLKGDKLAVVSTANQDSPLMGEAISGASGFPIMGLDVWEHAYYLKFQNRRPDYIKEFWNVVNWDEAAARFAAKK
Kd: 6.6 ± 0.9 µM

— paper PMC3018548 (Archives of biochemistry and biophysics, 2010)
